In patent US20260374869 (published 2026):

T1: human CD2 (human, UniProt P06729)
T1 chain: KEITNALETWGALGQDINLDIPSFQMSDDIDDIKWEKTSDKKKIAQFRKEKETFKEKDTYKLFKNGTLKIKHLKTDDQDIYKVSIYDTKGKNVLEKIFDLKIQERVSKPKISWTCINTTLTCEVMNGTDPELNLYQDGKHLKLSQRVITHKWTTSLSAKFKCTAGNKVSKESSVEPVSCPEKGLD

B1: DARPin #15 (designed binder)
chain: DLGDKLLEAAQYGQDDEVRILLAAGADVNAKDNSGSTPLHLAAQHGHLEIVEVLLKAGADVNAKDWWGWTPLHEAATTGHLEIVEVLLKAGADVNAQDKSGKTPADLAAHAGHEDIAEVLQKAA
B2: DARPin #3 (designed binder)
chain: DLGKKLLQAARAGQLDEVRELLKAGADVNAKDQQGVTPLHIAAYGHLEIVEVLLKAGADVNAKDLQGETPLHVAAWAGHLEIVEVLLKAGADVNAKDKHGITPLHLAAKKGHLEIVEVLLKAGAEVNAQDKSGKTPADLAARAGHQDIAEVLQKAA
B3: DARPin #1 (designed binder)
chain: DLGVKLLHAAQTGQDDEVRILLAAGADVNAKDWLGVTPLHYAAWIGHLEIVEVLLKAGADVNAKDWQGQTPLHLAAQWGHLEIVEVLLKAGADVNAQDNHGNTPADLAAEVGHEDIAEVLQKAA
B4: DARPin #2 (designed binder)
chain: DLGKKLLQAARAGQLDEVRELLKAGADVNAKDQHGFTPLHVAAKEGHLEIVEVLLKAGADVNAKDSFGETPLHLAAEHGHLEIVEVLLKAGADVNAKDQSGWTPLHLAAWAGHLEIVEVLLKAGADVNAQDKSGKTPADLAARAGHQDIAEVLQKAA

Target: T1, human CD2
Assay: SPR

Kd [nM] | Binder
15.9 | B1
48 | B2
3.28 | B3
382 | B4
